Experimental data: patent US20240344241A1, “PROTEINACEOUS MOLECULES AND USES THEREFOR” (THE UNIVERSITY OF QUEENSLAND, priority 2021, published 2024)
Ends that are not written are not given here.

T1: FXIIa in human plasma (generated by kaolin activation of FXII in aPTT assays) (human), P00748
T1 chain: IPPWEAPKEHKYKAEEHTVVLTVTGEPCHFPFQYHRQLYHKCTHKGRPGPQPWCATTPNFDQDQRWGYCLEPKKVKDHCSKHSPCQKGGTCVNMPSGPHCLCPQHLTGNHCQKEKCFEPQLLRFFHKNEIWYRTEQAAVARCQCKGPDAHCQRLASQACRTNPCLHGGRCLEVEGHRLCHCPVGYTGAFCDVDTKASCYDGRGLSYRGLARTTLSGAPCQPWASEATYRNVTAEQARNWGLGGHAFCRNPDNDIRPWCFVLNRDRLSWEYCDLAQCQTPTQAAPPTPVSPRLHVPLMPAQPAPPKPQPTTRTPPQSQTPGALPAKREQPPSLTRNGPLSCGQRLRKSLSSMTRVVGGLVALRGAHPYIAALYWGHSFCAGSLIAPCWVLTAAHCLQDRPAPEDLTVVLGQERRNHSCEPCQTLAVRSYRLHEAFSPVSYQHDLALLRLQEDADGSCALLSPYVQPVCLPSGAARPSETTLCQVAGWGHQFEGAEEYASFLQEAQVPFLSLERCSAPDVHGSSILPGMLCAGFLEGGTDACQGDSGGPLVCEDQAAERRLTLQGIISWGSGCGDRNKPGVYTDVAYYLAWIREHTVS

T2: human β-factor XIIa (human), P00748
T2 chain 1: NGPLSCGQR
T2 chain 2: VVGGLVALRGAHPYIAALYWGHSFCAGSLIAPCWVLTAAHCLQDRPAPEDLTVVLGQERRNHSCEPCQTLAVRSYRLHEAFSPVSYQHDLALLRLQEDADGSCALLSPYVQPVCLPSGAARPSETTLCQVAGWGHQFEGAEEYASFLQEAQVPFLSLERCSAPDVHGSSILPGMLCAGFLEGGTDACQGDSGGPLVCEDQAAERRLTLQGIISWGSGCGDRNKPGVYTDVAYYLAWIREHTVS

T3: recombinant human matriptase (human), Q9Y5Y6
T3 chain: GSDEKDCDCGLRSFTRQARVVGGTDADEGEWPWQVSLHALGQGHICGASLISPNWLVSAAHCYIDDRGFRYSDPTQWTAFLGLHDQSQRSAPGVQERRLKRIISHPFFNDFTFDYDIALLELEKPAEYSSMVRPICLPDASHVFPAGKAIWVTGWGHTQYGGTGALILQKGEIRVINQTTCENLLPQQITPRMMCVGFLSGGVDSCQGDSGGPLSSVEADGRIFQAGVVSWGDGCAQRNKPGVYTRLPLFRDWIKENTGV

T4: kallikrein-related peptidase 4 (KLK4), Q9Y5K2
T4 chain: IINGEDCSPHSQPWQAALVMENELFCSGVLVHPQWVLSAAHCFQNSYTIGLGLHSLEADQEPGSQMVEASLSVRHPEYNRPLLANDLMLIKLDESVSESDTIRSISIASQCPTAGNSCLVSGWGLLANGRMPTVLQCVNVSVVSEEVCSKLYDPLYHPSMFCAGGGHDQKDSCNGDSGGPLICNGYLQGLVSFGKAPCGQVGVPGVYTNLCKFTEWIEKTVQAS


Biological target: T1, FXIIa in human plasma (generated by …)
Experiment: cell-based or functional assay

Row | Binder | EC2× (inhibitor concentration that doubles the clotting time), aPTT assay in human plasma [nM]
1 | DGGICPRIGRLCRRDSDCPGACICRGNGYCGSGS (modifications not checked) [cMCoTI-fxL1] | 500

Biological target: T2, human β-factor XIIa (human), P00748
Experiment: SPR (Biacore T200), biotinylated human β-FXIIa captured on chip, peptide as analyte, 1:1 model

Row | Binder | Kd [nM]
2 | DGGRCPRLLRWCRRDSDCPGACICARGGLCGSGS (modifications not checked) [MCoFx3 acyclic] | 167
3 | DGGRCPRLLRWCRRDSDCPGACICARGGLCGSGS (modifications not checked) [MCoFx3 cyclic] | 23
4 | DGGRCCGGYLVCRRDSDCPGACICVFKKHCGSGS (modifications not checked) [MCoFx5 acyclic] | 23
5 | DGGRCCGGYLVCRRDSDCPGACICVFKKHCGSGS (modifications not checked) [MCoFx5 cyclic] | 82
6 | DGGICPRILVYCRRDSDCPGACICIRRTYCGSGS (modifications not checked) [MCoFx2 acyclic] | 45
7 | DGGICPRIGRLCRRDSDCPGACICRATRFCGSGY (modifications not checked) [MCoFx1 acyclic] | 1.9
8 | DGGVCPRVGWRCRRDSDCPGACICYPTKWCGSGS (modifications not checked) [MCoFx4 acyclic] | 74
9 | DGGVCPRVGWRCRRDSDCPGACICYPTKWCGSGS (modifications not checked) [MCoFx4 cyclic] | 14
10 | DGGVCPKILKKCRRDSDCPGACICRGNGYCGSGS (modifications not checked) [MCoTI-II (Momordica cochinchinensis trypsin inhibitor-II), chemically synthesized, cyclic] | 58

Biological target: T3, recombinant human matriptase (human), …
Experiment: competitive protease inhibition assay (selectivity panel), human matriptase, Boc-QAR-MCA

Row | Binder | Ki [nM]
11 | DGGICPRIGRLCRRDSDCPGACICRGNGYCGSGS (modifications not checked) [cMCoTI-fxL1] | 2210

Biological target: T2, human β-factor XIIa (human), P00748
Experiment: mRNA display affinity selection on bead-immobilised biotinylated human β-FXIIa, NGS; share of the sequence in the recovered library; peptide displayed as acyclic mRNA fusion

Row | Binder | Population (%)
12 | DGGRCPRLLRWCRRDSDCPGACICARGGLCGSGS (modifications not checked) [MCoFx3 acyclic] | 2.3
13 | DGGRCCGGYLVCRRDSDCPGACICVFKKHCGSGS (modifications not checked) [MCoFx5 acyclic] | 0.8
14 | DGGICPRILVYCRRDSDCPGACICIRRTYCGSGS (modifications not checked) [MCoFx2 acyclic] | 19.8
15 | DGGVCPRVGWRCRRDSDCPGACICYPTKWCGSGS (modifications not checked) [MCoFx4 acyclic] | 2.3

Biological target: T2, human β-factor XIIa (human), P00748
Experiment: competitive protease inhibition assay, Ac-QRFR-pNA substrate, Morrison Ki

Row | Binder | Ki [nM]
16 | DGGRCPRLLRWCRRDSDCPGACICARGGLCGSGS (modifications not checked) [MCoFx3 acyclic] | 525
17 | DGGRCPRLLRWCRRDSDCPGACICARGGLCGSGS (modifications not checked) [MCoFx3 cyclic] | 75
18 | DGGRCCGGYLVCRRDSDCPGACICVFKKHCGSGS (modifications not checked) [MCoFx5 acyclic] | 106
19 | DGGRCCGGYLVCRRDSDCPGACICVFKKHCGSGS (modifications not checked) [MCoFx5 cyclic] | 207
20 | DGGICPRILVYCRRDSDCPGACICIRRTYCGSGS (modifications not checked) [MCoFx2 acyclic] | 73
21 | DGGICPRILVYCRRDSDCPGACICIRRTYCGSGS (modifications not checked) [MCoFx2 cyclic] | 12
22 | DGGICPRIGRLCRRDSDCPGACICRATRFCGSGY (modifications not checked) [MCoFx1 acyclic] | 0.73
23 | DGGVCPRVGWRCRRDSDCPGACICYPTKWCGSGS (modifications not checked) [MCoFx4 acyclic] | 17
24 | DGGVCPRVGWRCRRDSDCPGACICYPTKWCGSGS (modifications not checked) [MCoFx4 cyclic] | 5.5
25 | DGGICPRIGRLCRRDSDCPGACICRGNGYCGSGS (modifications not checked) [cMCoTI-fxL1] | 0.69

These binders were tested against human cationic trypsin (human), P07477 (assay: competitive protease inhibition assay (selectivity panel), human trypsin, Boc-VPR-MCA).

Row | Binder | Ki [nM]
26 | DGGICPRIGRLCRRDSDCPGACICRGNGYCGSGS (modifications not checked) [cMCoTI-fxL1] | 996

The binders below were run against bovine trypsin (bovine), P00760 (assay: SPR, bovine trypsin).
Sequence of bovine trypsin (bovine), P00760 (P00760 24-246): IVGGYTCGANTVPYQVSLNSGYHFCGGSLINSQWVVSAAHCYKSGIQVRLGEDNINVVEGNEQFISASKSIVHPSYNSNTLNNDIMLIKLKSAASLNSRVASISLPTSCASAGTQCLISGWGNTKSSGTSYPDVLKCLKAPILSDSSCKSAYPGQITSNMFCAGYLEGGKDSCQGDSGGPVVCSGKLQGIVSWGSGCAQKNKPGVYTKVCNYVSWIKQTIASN

Row | Binder | Kd [nM]
27 | DGGRCPRLLRWCRRDSDCPGACICARGGLCGSGS (modifications not checked) [MCoFx3 acyclic] | 2.39
28 | DGGRCPRLLRWCRRDSDCPGACICARGGLCGSGS (modifications not checked) [MCoFx3 cyclic] | 2.72
29 | DGGICPRILVYCRRDSDCPGACICIRRTYCGSGS (modifications not checked) [MCoFx2 acyclic] | < 0.1
30 | DGGICPRILVYCRRDSDCPGACICIRRTYCGSGS (modifications not checked) [MCoFx2 cyclic] | < 0.1
31 | DGGICPRIGRLCRRDSDCPGACICRATRFCGSGY (modifications not checked) [MCoFx1 acyclic] | 59.6
32 | DGGVCPRVGWRCRRDSDCPGACICYPTKWCGSGS (modifications not checked) [MCoFx4 acyclic] | 15.1
33 | DGGVCPRVGWRCRRDSDCPGACICYPTKWCGSGS (modifications not checked) [MCoFx4 cyclic] | 4.09
34 | DGGVCPKILKKCRRDSDCPGACICRGNGYCGSGS (modifications not checked) [MCoTI-II (Momordica cochinchinensis trypsin inhibitor-II), chemically synthesized, cyclic] | < 0.1

Biological target: T2, human β-factor XIIa (human), P00748
Experiment: SPR (Biacore T200), biotinylated human β-FXIIa captured on chip, peptide as analyte, 1:1 model
Remark: another data set of the same source

Row | Binder | Kd [nM]
35 | DGGRCPRLLRWCRRDSDCPGACICARGGLCGSGS (modifications not checked) [MCoFx3 cyclic] | 22.8
36 | DGGRCCGGYLVCRRDSDCPGACICVFKKHCGSGS (modifications not checked) [MCoFx5 cyclic] | 81.8
37 | DGGICPRILVYCRRDSDCPGACICIRRTYCGSGS (modifications not checked) [MCoFx2 acyclic] | 45.4
38 | DGGICPRILVYCRRDSDCPGACICIRRTYCGSGS (modifications not checked) [MCoFx2 cyclic] | 10
39 | DGGICPRIGRLCRRDSDCPGACICRATRFCGSGY (modifications not checked) [MCoFx1 acyclic] | 1.89
40 | DGGVCPRVGWRCRRDSDCPGACICYPTKWCGSGS (modifications not checked) [MCoFx4 acyclic] | 73.8
41 | DGGVCPRVGWRCRRDSDCPGACICYPTKWCGSGS (modifications not checked) [MCoFx4 cyclic] | 14.4

Biological target: T2, human β-factor XIIa (human), P00748
Experiment: competitive inhibition assay with peptide substrate

Row | Binder | Ki [nM]
42 | RVCPRILKKCRRDSDCPGACICRGNGYCG (modifications not checked) [acyclic MCoTI-II variant M] | 3.3

Biological target: T4, kallikrein-related peptidase 4 (KLK4), …
Experiment: as above

Row | Binder | Ki [nM]
43 | RVCPRILKKCRRDSDCPGACICRGNGYCG (modifications not checked) [acyclic MCoTI-II variant M] | 0.07

The binders below were run against human cationic trypsin (human), P07477 in the same assay as above.

Row | Binder | Ki [nM]
44 | RVCPRILKKCRRDSDCPGACICRGNGYCG (modifications not checked) [acyclic MCoTI-II variant M] | 0.4

Biological target: T3, recombinant human matriptase (human), …
Experiment: as above

Row | Binder | Ki [nM]
45 | RVCPRILKKCRRDSDCPGACICRGNGYCG (modifications not checked) [acyclic MCoTI-II variant M] | 0.4

Biological target: T2, human β-factor XIIa (human), P00748
Experiment: competitive protease inhibition assay, ratio of Ki values

Row | Binder | fold loss in activity against cyclic MCoFx7 [fold] | fold weaker activity than cyclic MCoFx7 [fold]
46 | GGICPRIGRLCRRDSDCPGACICRATGFCGSGSD (not fully specified (bridges); cysteine pairing not given here) [Cyclic [R27G]MCoFx7] | 3.2 | –
47 | GGICPRIGRLCRRDSDCPGACICRATHFCGSGSD (not fully specified (bridges); cysteine pairing not given here) [Cyclic [R27H]MCoFx7] | 2 | –
48 | GGICPRIGRLCERDSDCPGACICRATRFCGSGSD (not fully specified (bridges); cysteine pairing not given here) [Cyclic [R12E]MCoFx7] | – | 2

Biological target: T2, human β-factor XIIa (human), P00748
Experiment: mRNA display affinity selection on bead-immobilised biotinylated human β-FXIIa, NGS; share of the sequence in the recovered library

Row | Binder | Population (%)
49 | MDGGICPRIGRLCRRDSDCPGACICRATRFCGSGSGS (modifications not checked) [MCoFx1, mRNA display selected sequence (parent of the saturation mutagenesis library)] | 20.7

Biological target: T2, human β-factor XIIa (human), P00748
Experiment: competitive protease inhibition assay, 0.5 nM FXIIa, Boc-QGR-MCA substrate

Row | Binder | Ki [nM]
50 | GGICPRIGRLCRRDSDCPGACICRATGFCGSGSD (not fully specified (bridges); cysteine pairing not given here) [Cyclic [R27G]MCoFx7] | 0.21
51 | GGICPRIGRLCRRDSDCPGACICRPTRFCGSGSD (not fully specified (bridges); cysteine pairing not given here) [Cyclic [A25P]MCoFx7] | 0.093
52 | GGICPRIGRLCRRDSDCPGACICRATRFCGSGSD (modifications not checked) [Cyclic MCoFx7] | 0.064
53 | GGICPRIGRLCTRDSDCPGACICRATRFCGSGSD (not fully specified (bridges); cysteine pairing not given here) [Cyclic [R12T]MCoFx7] | 0.065
54 | GGICPRIGRLCRRDSDCPGACICRKTRFCGSGSD (not fully specified (bridges); cysteine pairing not given here) [Cyclic [A25K]MCoFx7] | 0.046
55 | GGICPRIGRLCRRDSDCPGACICRATRFCGSGSP (not fully specified (bridges); cysteine pairing not given here) [Cyclic [D34P]MCoFx7] | 0.091
56 | GGICPRIGRLCVRDSDCPGACICRATRFCGSGSD (not fully specified (bridges); cysteine pairing not given here) [Cyclic [R12V]MCoFx7] | 0.069
57 | GGICPRIGRLCRRDSDCPGACICRATHFCGSGSD (not fully specified (bridges); cysteine pairing not given here) [Cyclic [R27H]MCoFx7] | 0.12
58 | GGICPRIGRLCRKDSDCPGACICRATRFCGSGSD (not fully specified (bridges); cysteine pairing not given here) [Cyclic [R13K]MCoFx7] | 0.068
59 | GGICPRIGRLCERDSDCPGACICRATRFCGSGSD (not fully specified (bridges); cysteine pairing not given here) [Cyclic [R12E]MCoFx7] | 0.13
